Test results reported in the Human Domainome abundance scans (Beltran et al. 2025).
± gives the uncertainty stated by the source.

B1: SWI/SNF-related matrix-associated actin-dependent regulator of chromatin subfamily B member 1, residues 181 to 248; numbered along this chain, Q12824 (parent)
chain: SQPEVLVPIRLDMEIDGQKLRDAFTWNMNEKLMTPEMFSEILCDDLDLNPLTFVPAIASAIRQQIESY

Variants of: B1
Assay: abundance fitness (aPCA) (normalised: wild type 0, dead -1); higher = more abundant; growth selection in yeast, the domain comes from the species named
Conditions: Homo sapiens

| Variant | abundance fitness |
| --- | --- |
| SQPEVLVPIRLDMEIDGQKLRDAFTWNMNEKPMTPEMFSEILCDDLDLNPLTFVPAIASAIRQQIESY | -0.821 ± 0.21 |
| SQPEVLVPIRLDMEIDGQKLRDAFTWNMNEKWMTPEMFSEILCDDLDLNPLTFVPAIASAIRQQIESY | -0.113 ± 0.061 |
| SQPEVLVPIRLDMEIDGQKLRDAFTWNMNEKKMTPEMFSEILCDDLDLNPLTFVPAIASAIRQQIESY | 0.176 ± 0.058 |
| SQPEVLVPIRLDMEIDGQKLRDAFTWNMNEKCMTPEMFSEILCDDLDLNPLTFVPAIASAIRQQIESY | -0.075 ± 0.075 |
| SQPEVLVPIRLDMEIDGQKLRDAFTWNMNEKMMTPEMFSEILCDDLDLNPLTFVPAIASAIRQQIESY | 0.085 ± 0.046 |
| SQPEVLVPIRLDMEIDGQKLRDAFTWNMNEKSMTPEMFSEILCDDLDLNPLTFVPAIASAIRQQIESY | 0.059 ± 0.036 |
| SQPEVLVPIRLDMEIDGQKLRDAFTWNMNEKEMTPEMFSEILCDDLDLNPLTFVPAIASAIRQQIESY | 0.207 ± 0.045 |
| SQPEVLVPIRLDMEIDGQKLRDAFTWNMNEKHMTPEMFSEILCDDLDLNPLTFVPAIASAIRQQIESY | 0.146 ± 0.053 |
| SQPEVLVPIRLDMEIDGQKLRDAFTWNMNEKAMTPEMFSEILCDDLDLNPLTFVPAIASAIRQQIESY | 0.056 ± 0.036 |
| SQPEVLVPIRLDMEIDGQKLRDAFTWNMNEKGMTPEMFSEILCDDLDLNPLTFVPAIASAIRQQIESY | 0.061 ± 0.03 |
| SQPEVLVPIRLDMEIDGQKLRDAFTWNMNEKVMTPEMFSEILCDDLDLNPLTFVPAIASAIRQQIESY | 0.068 ± 0.031 |
| SQPEVLVPIRLDMEIDGQKLRDAFTWNMNEKQMTPEMFSEILCDDLDLNPLTFVPAIASAIRQQIESY | 0.099 ± 0.047 |
| SQPEVLVPIRLDMEIDGQKLRDAFTWNMNEKFMTPEMFSEILCDDLDLNPLTFVPAIASAIRQQIESY | 0.09 ± 0.079 |
| SQPEVLVPIRLDMEIDGQKLRDAFTWNMNEKDMTPEMFSEILCDDLDLNPLTFVPAIASAIRQQIESY | 0.181 ± 0.05 |
| SQPEVLVPIRLDMEIDGQKLRDAFTWNMNEKYMTPEMFSEILCDDLDLNPLTFVPAIASAIRQQIESY | 0.061 ± 0.058 |
| SQPEVLVPIRLDMEIDGQKLRDAFTWNMNEKNMTPEMFSEILCDDLDLNPLTFVPAIASAIRQQIESY | 0.207 ± 0.1 |
| SQPEVLVPIRLDMEIDGQKLRDAFTWNMNEKTMTPEMFSEILCDDLDLNPLTFVPAIASAIRQQIESY | 0.134 ± 0.055 |
| SQPEVLVPIRLDMEIDGQKLRDAFTWNMNAKLMTPEMFSEILCDDLDLNPLTFVPAIASAIRQQIESY | -0.619 ± 0.34 |
| SQPEVLVPIRLDMEIDGQKLRDAFTWNMNGKLMTPEMFSEILCDDLDLNPLTFVPAIASAIRQQIESY | -0.617 ± 0.32 |
| SQPEVLVPIRLDMEIDGQKLRDAFTWNMNWKLMTPEMFSEILCDDLDLNPLTFVPAIASAIRQQIESY | 0.023 ± 0.32 |

| Variant | abundance fitness |
| --- | --- |
| SQPEVLVPIRLDMEIDGQKLRDAFTWNMKEKLMTPEMFSEILCDDLDLNPLTFVPAIASAIRQQIESY | -0.286 ± 0.096 |
| SQPEVLVPIRLDMEIDGQKLRDAFTWNMGEKLMTPEMFSEILCDDLDLNPLTFVPAIASAIRQQIESY | -0.244 ± 0.087 |
| SQPEVLVPIRLDMEIDGQKLRDAFTWNMREKLMTPEMFSEILCDDLDLNPLTFVPAIASAIRQQIESY | -0.273 ± 0.23 |
| SQPEVLVPIRLDMEIDGQKLRDAFTWNMQEKLMTPEMFSEILCDDLDLNPLTFVPAIASAIRQQIESY | -0.476 ± 0.45 |
| SQPEVLVPIRLDMEIDGQKLRDAFTWNMVEKLMTPEMFSEILCDDLDLNPLTFVPAIASAIRQQIESY | -0.727 ± 0.21 |
| SQPEVLVPIRLDMEIDGQKLRDAFTWNMLEKLMTPEMFSEILCDDLDLNPLTFVPAIASAIRQQIESY | -0.939 ± 0.25 |
| SQPEVLVPIRLDMEIDGQKLRDAFTWNMDEKLMTPEMFSEILCDDLDLNPLTFVPAIASAIRQQIESY | -0.212 ± 0.24 |
| SQPEVLVPIRLDMEIDGQKLRDAFTWNMSEKLMTPEMFSEILCDDLDLNPLTFVPAIASAIRQQIESY | -0.136 ± 0.28 |
| SQPEVLVPIRLDMEIDGQKLRDAFTWNMFEKLMTPEMFSEILCDDLDLNPLTFVPAIASAIRQQIESY | -0.736 ± 0.28 |
| SQPEVLVPIRLDMEIDGQKLRDAFTWNMNEALMTPEMFSEILCDDLDLNPLTFVPAIASAIRQQIESY | 0.031 ± 0.077 |
| SQPEVLVPIRLDMEIDGQKLRDAFTWNMNEWLMTPEMFSEILCDDLDLNPLTFVPAIASAIRQQIESY | -0.533 ± 0.1 |
| SQPEVLVPIRLDMEIDGQKLRDAFTWNMNETLMTPEMFSEILCDDLDLNPLTFVPAIASAIRQQIESY | 0.084 ± 0.096 |
| SQPEVLVPIRLDMEIDGQKLRDAFTWNMNECLMTPEMFSEILCDDLDLNPLTFVPAIASAIRQQIESY | -0.391 ± 0.095 |
| SQPEVLVPIRLDMEIDGQKLRDAFTWNMNERLMTPEMFSEILCDDLDLNPLTFVPAIASAIRQQIESY | -0.113 ± 0.043 |
| SQPEVLVPIRLDMEIDGQKLRDAFTWNMNEFLMTPEMFSEILCDDLDLNPLTFVPAIASAIRQQIESY | -0.397 ± 0.42 |
| SQPEVLVPIRLDMEIDGQKLRDAFTWNMNEVLMTPEMFSEILCDDLDLNPLTFVPAIASAIRQQIESY | -0.146 ± 0.061 |
| SQPEVLVPIRLDMEIDGQKLRDAFTWNMNEHLMTPEMFSEILCDDLDLNPLTFVPAIASAIRQQIESY | -0.169 ± 0.078 |
| SQPEVLVPIRLDMEIDGQKLRDAFTWNMNESLMTPEMFSEILCDDLDLNPLTFVPAIASAIRQQIESY | -0.063 ± 0.065 |
| SQPEVLVPIRLDMEIDGQKLRDAFTWNMNEDLMTPEMFSEILCDDLDLNPLTFVPAIASAIRQQIESY | 0.018 ± 0.17 |
